Where a chain is given by its changes, count along the chain named. In names and notes the source's numbering stands.
B1: hu40E9-L2H3 (antibody, V domains shown)
VH: EVQLVQSGAEVKKPGSSVKVSCKASGYTFSSYVIHWVRQAPGQGLEWMGYINPYNDVIKYNEKFKGRVTLTSDKSTSTAYMELSSLRSEDTAVYYCARDSYYSYDGFAYWGQGTLVTVSS
VL: EIVLTQSPDFQSVTPKEKVTITCSASSSVSYMHWYQQKPDQSPKRLIYDTSKLASGVPSRFSGSGSGTDFTLTINSLEAEDAATYYCQQWSSNPPTFGGGTKVEIK
notes: humanized 40-C12-C10-E9
B2: hu40E9-L2H3-D105R.H (antibody, V domains shown)
VH: B1 VH with D105R
VL: B1 VL
B3: hu40E9-L2H3-S91R.L (antibody, V domains shown)
VH: B1 VH
VL: B1 VL with S91R
B4: hu40E9-L3H4 (antibody, V domains shown)
VH: B1 VH with M48I, V68A
VL: B1 VL with L46W, F70Y
notes: humanized 40-C12-C10-E9
B5: hu40E9-L2H3-N93R.L (antibody, V domains shown)
VH: B1 VH
VL: B1 VL with N93R
B6: hu40E9-L2H3-N55S.H (antibody, V domains shown)
VH: B1 VH with N55S
VL: B1 VL
B7: hu40E9-L3H2 (antibody, V domains shown)
VH: B1 VH with L70I, S72A
VL: B1 VL with L46W, F70Y
notes: humanized 40-C12-C10-E9
B8: hu40E9-L2H3-D99E.H (antibody, V domains shown)
VH: B1 VH with D99E
VL: B1 VL
B9: hu40E9-L2H3-Y102S.H (antibody, V domains shown)
VH: B1 VH with Y102S
VL: B1 VL
B10: hu40E9-L3H1 (antibody, V domains shown)
VH: B1 VH with Y27G, L70I, S72A
VL: B1 VL with L46W, F70Y
notes: humanized 40-C12-C10-E9
B11: hu40E9-L2H3-D56G.H (antibody, V domains shown)
VH: B1 VH with D56G
VL: B1 VL
B12: hu40E9-L2H2 (antibody, V domains shown)
VH: B1 VH with L70I, S72A
VL: B1 VL
notes: humanized 40-C12-C10-E9
B13: hu40E9-L2H3-N93W.L (antibody, V domains shown)
VH: B1 VH
VL: B1 VL with N93W
B14: hu40E9-L2H1 (antibody, V domains shown)
VH: B1 VH with Y27G, L70I, S72A
VL: B1 VL
notes: humanized 40-C12-C10-E9
B15: hu40E9-L2H3-Y54G.H (antibody, V domains shown)
VH: B1 VH with Y54G
VL: B1 VL
B16: hu40E9-L2H3-D105E.H (antibody, V domains shown)
VH: B1 VH with D105E
VL: B1 VL
B17: hu40E9-L2H4 (antibody, V domains shown)
VH: B1 VH with M48I, V68A
VL: B1 VL
notes: humanized 40-C12-C10-E9
B18: hu40E9-L2H3-N93S.L (antibody, V domains shown)
VH: B1 VH
VL: B1 VL with N93S
B19: hu40E9-L2H3-G106A.H (antibody, V domains shown)
VH: B1 VH with G106A
VL: B1 VL
B20: hu40E9-L2H3-Y101F.H (antibody, V domains shown)
VH: B1 VH with Y101F
VL: B1 VL
B21: hu40E9-L2H7 (antibody, V domains shown)
VH: B1 VH with Y54G, D56G, Y102S
VL: B1 VL
B22: hu40E9-L2H5 (antibody, V domains shown)
VH: B1 VH with Y54G, N55S, D56G
VL: B1 VL
B23: hu40E9-L2H6 (antibody, V domains shown)
VH: B1 VH with D99E, Y101F, Y102S
VL: B1 VL

The binders below were run against T1, human CD3 (human, UniProt P07766 23-207; P04234 22-171; P09693 23-182) (assay: FACS on Jurkat cells).
T1 construct: whole, on cells; also called hCD3; CD3 on Jurkat cells
T1 sequence (P07766 23-207, chain 1 of 3): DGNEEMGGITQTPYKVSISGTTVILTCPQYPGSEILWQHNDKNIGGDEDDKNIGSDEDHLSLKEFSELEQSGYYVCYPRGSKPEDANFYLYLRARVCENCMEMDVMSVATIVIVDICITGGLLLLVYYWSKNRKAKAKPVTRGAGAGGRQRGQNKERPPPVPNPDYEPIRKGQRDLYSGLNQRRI
T1 sequence (P04234 22-171, chain 2 of 3): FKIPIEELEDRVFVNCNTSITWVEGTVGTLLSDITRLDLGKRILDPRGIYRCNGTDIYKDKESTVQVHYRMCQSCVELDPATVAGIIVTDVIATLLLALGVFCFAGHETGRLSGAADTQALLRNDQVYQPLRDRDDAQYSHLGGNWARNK
T1 sequence (P09693 23-182, chain 3 of 3): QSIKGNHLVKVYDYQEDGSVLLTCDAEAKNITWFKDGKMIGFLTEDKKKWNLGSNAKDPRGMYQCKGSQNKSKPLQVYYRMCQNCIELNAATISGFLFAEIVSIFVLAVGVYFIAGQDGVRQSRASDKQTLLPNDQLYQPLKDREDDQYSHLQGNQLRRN
In the case of B1, the EC50 is reported as 0.65 nM and the “Top FACS signal” value is reported as 1580.
For B2, the EC50 was 0.56 nM and the “Top FACS signal” value was 1480.
In the case of B3, the EC50 is reported as 0.32 nM and the “Top FACS signal” value is reported as 1360.
For B4, the EC50 was 0.49 nM and the “Top FACS signal” value was 1360.
In the case of B5, the EC50 is reported as 0.63 nM and the “Top FACS signal” value is reported as 1420.
In the case of B6, the EC50 is reported as 0.51 nM and the “Top FACS signal” value is reported as 1160.
B7 was tested, and the EC50 was 0.52 nM and the “Top FACS signal” value was 1410.
B8 was tested, and the EC50 was 0.31 nM and the “Top FACS signal” value was 957.
In the case of B9, the EC50 is reported as 0.47 nM and the “Top FACS signal” value is reported as 1160.
In the case of B10, the EC50 is reported as 0.75 nM and the “Top FACS signal” value is reported as 1250.
For B11, the EC50 was 0.32 nM and the “Top FACS signal” value was 1450.
For B12, the EC50 was 0.81 nM and the “Top FACS signal” value was 1570.
With B13 the EC50 was 0.51 nM and the “Top FACS signal” value was 1210.
With B14 the EC50 was 0.73 nM and the “Top FACS signal” value was 892.
With B15 the EC50 was 0.51 nM and the “Top FACS signal” value was 1190.
With B16 the EC50 was 1.16 nM and the “Top FACS signal” value was 1410.
B17 was tested, and the EC50 was 0.86 nM and the “Top FACS signal” value was 1570.
B18 was tested, and the EC50 was 0.6 nM and the “Top FACS signal” value was 1360.
With B19 the EC50 was 2.39 nM and the “Top FACS signal” value was 771.
For B20, the EC50 was 0.64 nM and the “Top FACS signal” value was 1190.

Molecular target: T1, human CD3
Assay: FACS on Jurkat cells
Remark: another data set of the same source
In the case of B21, the EC50 is reported as 0.66 nM and the “Top FACS signal” value is reported as 2380.
B22 was tested, and the EC50 was 0.36 nM and the “Top FACS signal” value was 1920.
B23 was tested, and the EC50 was 4.17 nM and the “Top FACS signal” value was 1260.

These binders were tested against T1, human CD3 (assay: cell-based or functional assay).
In the case of B1, the “EC50_Fold change (Jurkat-NFAT-luciferase activation, normalized to ch40-C12-C10-E9)” value is reported as 2.43 fold and the “Top FACS signal_Fold change (Jurkat-NFAT-luciferase activation, normalized to ch40-C12-C10-E9)” value is reported as 1.18 fold.
In the case of B2, the “EC50_Fold change (Jurkat-NFAT-luciferase activation, normalized to ch40-C12-C10-E9)” value is reported as 1.95 fold and the “Top FACS signal_Fold change (Jurkat-NFAT-luciferase activation, normalized to ch40-C12-C10-E9)” value is reported as 0.81 fold.
For B3, the “EC50_Fold change (Jurkat-NFAT-luciferase activation, normalized to ch40-C12-C10-E9)” value was 0.79 fold and the “Top FACS signal_Fold change (Jurkat-NFAT-luciferase activation, normalized to ch40-C12-C10-E9)” value was 0.95 fold.
For B4, the “EC50_Fold change (Jurkat-NFAT-luciferase activation, normalized to ch40-C12-C10-E9)” value was 0.61 fold and the “Top FACS signal_Fold change (Jurkat-NFAT-luciferase activation, normalized to ch40-C12-C10-E9)” value was 0.64 fold.
With B5 the “EC50_Fold change (Jurkat-NFAT-luciferase activation, normalized to ch40-C12-C10-E9)” value was 0.81 fold and the “Top FACS signal_Fold change (Jurkat-NFAT-luciferase activation, normalized to ch40-C12-C10-E9)” value was 1.07 fold.
For B6, the “EC50_Fold change (Jurkat-NFAT-luciferase activation, normalized to ch40-C12-C10-E9)” value was 1.35 fold and the “Top FACS signal_Fold change (Jurkat-NFAT-luciferase activation, normalized to ch40-C12-C10-E9)” value was 1.03 fold.
B7 was tested, and the “EC50_Fold change (Jurkat-NFAT-luciferase activation, normalized to ch40-C12-C10-E9)” value was 0.57 fold and the “Top FACS signal_Fold change (Jurkat-NFAT-luciferase activation, normalized to ch40-C12-C10-E9)” value was 0.73 fold.
In the case of B8, the “EC50_Fold change (Jurkat-NFAT-luciferase activation, normalized to ch40-C12-C10-E9)” value is reported as 1.19 fold and the “Top FACS signal_Fold change (Jurkat-NFAT-luciferase activation, normalized to ch40-C12-C10-E9)” value is reported as 0.91 fold.
With B9 the “EC50_Fold change (Jurkat-NFAT-luciferase activation, normalized to ch40-C12-C10-E9)” value was 0.87 fold and the “Top FACS signal_Fold change (Jurkat-NFAT-luciferase activation, normalized to ch40-C12-C10-E9)” value was 0.96 fold.
In the case of B10, the “EC50_Fold change (Jurkat-NFAT-luciferase activation, normalized to ch40-C12-C10-E9)” value is reported as 1.33 fold and the “Top FACS signal_Fold change (Jurkat-NFAT-luciferase activation, normalized to ch40-C12-C10-E9)” value is reported as 0.97 fold.
In the case of B11, the “EC50_Fold change (Jurkat-NFAT-luciferase activation, normalized to ch40-C12-C10-E9)” value is reported as 0.65 fold and the “Top FACS signal_Fold change (Jurkat-NFAT-luciferase activation, normalized to ch40-C12-C10-E9)” value is reported as 0.82 fold.
For B12, the “EC50_Fold change (Jurkat-NFAT-luciferase activation, normalized to ch40-C12-C10-E9)” value was 2.14 fold and the “Top FACS signal_Fold change (Jurkat-NFAT-luciferase activation, normalized to ch40-C12-C10-E9)” value was 1.28 fold.
B13 was tested, and the “EC50_Fold change (Jurkat-NFAT-luciferase activation, normalized to ch40-C12-C10-E9)” value was 0.72 fold and the “Top FACS signal_Fold change (Jurkat-NFAT-luciferase activation, normalized to ch40-C12-C10-E9)” value was 0.88 fold.
With B14 the “EC50_Fold change (Jurkat-NFAT-luciferase activation, normalized to ch40-C12-C10-E9)” value was 5.73 fold and the “Top FACS signal_Fold change (Jurkat-NFAT-luciferase activation, normalized to ch40-C12-C10-E9)” value was 1.37 fold.
For B15, the “EC50_Fold change (Jurkat-NFAT-luciferase activation, normalized to ch40-C12-C10-E9)” value was 1.06 fold and the “Top FACS signal_Fold change (Jurkat-NFAT-luciferase activation, normalized to ch40-C12-C10-E9)” value was 0.94 fold.
With B16 the “EC50_Fold change (Jurkat-NFAT-luciferase activation, normalized to ch40-C12-C10-E9)” value was 3.77 fold and the “Top FACS signal_Fold change (Jurkat-NFAT-luciferase activation, normalized to ch40-C12-C10-E9)” value was 0.74 fold.
B17 was tested, and the “EC50_Fold change (Jurkat-NFAT-luciferase activation, normalized to ch40-C12-C10-E9)” value was 0.8 fold and the “Top FACS signal_Fold change (Jurkat-NFAT-luciferase activation, normalized to ch40-C12-C10-E9)” value was 0.89 fold.
With B18 the “EC50_Fold change (Jurkat-NFAT-luciferase activation, normalized to ch40-C12-C10-E9)” value was 0.74 fold and the “Top FACS signal_Fold change (Jurkat-NFAT-luciferase activation, normalized to ch40-C12-C10-E9)” value was 0.87 fold.
For B19, the “EC50_Fold change (Jurkat-NFAT-luciferase activation, normalized to ch40-C12-C10-E9)” value was 4.95 fold and the “Top FACS signal_Fold change (Jurkat-NFAT-luciferase activation, normalized to ch40-C12-C10-E9)” value was 0.99 fold.
In the case of B20, the “EC50_Fold change (Jurkat-NFAT-luciferase activation, normalized to ch40-C12-C10-E9)” value is reported as 1.23 fold and the “Top FACS signal_Fold change (Jurkat-NFAT-luciferase activation, normalized to ch40-C12-C10-E9)” value is reported as 0.94 fold.

Molecular target: T1, human CD3
Assay: cell-based or functional assay
Remark: another data set of the same source
With B21 the “EC50_Fold change (Jurkat-NFAT-luciferase activation, normalized to ch40-C12-C10-E9)” value was 1.18 fold and the “Top signal_Fold change (Jurkat-NFAT-luciferase activation, normalized to ch40-C12-C10-E9)” value was 0.77 fold.
B22 was tested, and the “EC50_Fold change (Jurkat-NFAT-luciferase activation, normalized to ch40-C12-C10-E9)” value was 1.29 fold and the “Top signal_Fold change (Jurkat-NFAT-luciferase activation, normalized to ch40-C12-C10-E9)” value was 0.79 fold.
With B23 the “EC50_Fold change (Jurkat-NFAT-luciferase activation, normalized to ch40-C12-C10-E9)” value was 4.57 fold and the “Top signal_Fold change (Jurkat-NFAT-luciferase activation, normalized to ch40-C12-C10-E9)” value was 0.74 fold.

From US20250223358A1 (ANTENGENE BIOLOGICS, published 2025)
